Substitutions are numbered along the chain they refer to. In names and notes the source's numbering stands. Blank lines part the entries; values can stand above or below the molecule they belong to.
B1: TH553, thioredoxin fusion of human AHR aa1-295 (CΔ553) (domain or fragment, UniProt P35869 1-295, looked up)
chain: MNSSSANITYASRKRRKPVQKTVKPIPAEGIKSNPSKRHRDRLNTELDRLASLLPFPQDVINKLDKLSVLRLSVSYLRAKSFFDVALKSSPTERNGGQDNCRAANFREGLNLQEGEFLLQALNGFVLVVTTDALVFYASSTIQDYLGFQQSDVIHQSVYELIHTEDRAEFQRQLHWALNPSQCTESGQGIEEATGLPQTVVCYNPDQIPPENSPLMERCFICRLRCLLDNSSGFLAMNFQGKLKYLHGQKKKGKDGSILPPQLALFAIATPLQPPSILEIRTKNFIFRTKHKLDF
B2: GST-p23 CΔ50 (p23 aa1-110, lacking the terminal 50 amino acids) (domain or fragment, human, UniProt Q15185 1-110, looked up)
chain: MQPASAKWYDRRDYVFIEFCVEDSKDVNVNFEKSKLTFSCLGGSDNFKHLNEIDLFHCIDPNDSKHKRTDRSILCCLRKGESGQSWPRLTKERAKLNWLSVDFNNWKDWE
B3: GST-p23 D108A (natural protein, human, UniProt Q15185 1-160, looked up)
chain: MQPASAKWYDRRDYVFIEFCVEDSKDVNVNFEKSKLTFSCLGGSDNFKHLNEIDLFHCIDPNDSKHKRTDRSILCCLRKGESGQSWPRLTKERAKLNWLSVDFNNWKAWEDDSDEDMSNFDRFSEMMNNMGGDEDVDLPEVDGADDDSQDSDDEKMPDLE
B4: GST-p23 D112A (natural protein, human, UniProt Q15185 1-160, looked up)
chain: B3 chain with A108D, D112A

How the values were obtained:
GST-p23 D112A (human) = GST-p23 D112A (human) (UniProt Q15185); assay: pull-down
GST-p23 W106A (human) = GST-p23 W106A (human) (UniProt Q15185); assay: pull-down
GST-p23 D108A (human) = GST-p23 D108A (human) (UniProt Q15185); assay: pull-down
[1] = target: Full-length human ARNT expressed in Pichia (human, UniProt P27540 1-789); assay: native gel or EMSA
[2] = target: B1; assay: pull-down

Chain of Full-length human ARNT expressed in Pichia (P27540 whole entry): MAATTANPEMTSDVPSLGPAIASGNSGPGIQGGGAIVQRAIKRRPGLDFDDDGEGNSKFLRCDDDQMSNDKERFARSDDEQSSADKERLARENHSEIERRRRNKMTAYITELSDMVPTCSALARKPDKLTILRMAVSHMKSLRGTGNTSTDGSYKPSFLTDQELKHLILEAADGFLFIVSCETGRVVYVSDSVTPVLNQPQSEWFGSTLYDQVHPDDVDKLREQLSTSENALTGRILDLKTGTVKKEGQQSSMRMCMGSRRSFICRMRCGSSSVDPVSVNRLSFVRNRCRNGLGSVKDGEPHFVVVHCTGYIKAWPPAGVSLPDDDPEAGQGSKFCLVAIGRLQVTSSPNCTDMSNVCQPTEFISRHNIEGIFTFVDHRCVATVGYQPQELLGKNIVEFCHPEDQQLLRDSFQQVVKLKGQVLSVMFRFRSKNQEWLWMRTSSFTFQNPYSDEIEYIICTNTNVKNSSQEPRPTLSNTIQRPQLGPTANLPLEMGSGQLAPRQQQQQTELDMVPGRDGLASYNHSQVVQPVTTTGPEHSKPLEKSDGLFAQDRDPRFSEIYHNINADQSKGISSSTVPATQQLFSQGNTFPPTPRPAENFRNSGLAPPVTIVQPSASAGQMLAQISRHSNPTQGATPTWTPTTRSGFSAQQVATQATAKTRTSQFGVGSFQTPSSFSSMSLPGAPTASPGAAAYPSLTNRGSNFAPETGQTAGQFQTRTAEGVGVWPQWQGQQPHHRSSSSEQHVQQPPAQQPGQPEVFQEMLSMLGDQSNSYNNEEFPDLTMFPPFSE

Hsp90 co-precipitated, percent of wild-type p23 (GST-p23 D112A (human)): 41%
Hsp90 co-precipitated, percent of wild-type p23 (GST-p23 W106A (human)): 19%
Hsp90 co-precipitated, percent of wild-type p23 (GST-p23 D108A (human)): 12%
Molecule: Histidine fusion of full-length human Hsp90 (from UniProt P07900 1-732) (natural protein)

Molecule: B1
binding result [1]: binds

Molecule: B2
binding result [2]: binds

Molecule: B3
binding result [2]: binds

Molecule: B4
binding result [2]: binds
